According to PMC9271601 (Structure (London, England : 1993), 2022):

B1: 1D12 B cell receptor on the donor's B cell (antibody, V domains shown)
VH: QLVQSGAEVKKPGASVKVSCKASGYTFTGYYLHWVRQAPGQGLEWMGRINPDTGGTNYAQKFQGRVSMTRDMSISTHYMELSRLTSDDTAVYYCATKRGAVTAMVYYYFYGMDVWGQGTTVTVSS
VL: DIVMTQSPLSLSVTPGEPASISCRSSHSLLHLNGYNYLDWYLQKPGQSPQLLIYLGSNRASGVPDRFSGSGSGTDFTLKISRVEAEDVGIYYCMQALRTPPGLTFGGGTKVDIK
B2: 315–19-1D12 Fab (Fab, V domains shown)
VH: B1 VH
VL: B1 VL

What was measured:
H7 (SH13) HA probe = H7 (SH13) HA probe (Influenza A virus A/Shanghai/02/2013 …, UniProt R4NN21, strain, biotin (biotin protein ligase, AviTag)); experiment: flow cytometry on cells
[1] = biological target: H9N2 A/Hong Kong/1073/99 hemagglutinin trimer, wild type (Influenza A virus A/Hong Kong/1073/99 …, UniProt Q9ICY5, strain); experiment: BLI

Binder	binding result (H7 (SH13) HA probe)	binding result [1]
B1	binds	–
B2	–	binds
